Where no end group is shown, it is not given here. [ ]: non-standard residue; d: D form.
Tests used:
[1] = Stability in simulated intestinal fluid (SIF), biological activity by cGMP synthesis in T84 cells; type: in vitro ADME; settings: SIF, two hour incubation (FIG. 7A)
Description: FIG. 2A: Biological activity of SP-304 incubated for varying lengths of time in simulated intestinal fluid (SIF). SP-304 samples were incubated for 0, 30, 60, 90, 150, and 300 min, respectively, and then tested for their ability to stimulate cGMP synthesis in T84 cells. The cGMP stimulation activity in the sample at 0 min of incubation time in SIF was taken as 100% biological activity. The activities of the other SP-304 incubation samples were calculated as the percentage of activity relative to that of the 0 min sample. Data points shown are the average of triplicate measurements±SD.
(§1) FIG. 7A: Biological activity of SP-333 incubated for varying lengths of time in simulated intestinal fluid (SIF). SP-333 samples incubated for 0, 5, 10, 30, 60, and 120 min, respectively, were tested for their ability to stimulate cGMP synthesis in T84 cells. The control sample marked as C120 was produced by incubating SP-333 with heat inactivated SIF for 120 min. Samples from the incubations were removed and heated at 95° C. for 5 min to inactivate digestive enzymes and then used to stimulate cyclic GMP synthesis in T84 cells. The cGMP stimulation activity in the sample at 0 min of incubation time in SIF was taken as 100% biological activity. The activities of the other SP-304 incubation samples were calculated as the percentage of activity relative to that of the 0 min sample. Data points shown are the average of triplicate measurements±SD.
as §1, with “FIG. 7B:” for “FIG. 7A:”, “of SP-332” for “of SP-333”, “incubating SP-332” for “incubating SP-333”
FIG. 7C: Biological activity of SP-304 incubated for varying lengths of time in simulated intestinal fluid (SIF). SP-304 samples incubated for 0, 10, and 60 min, respectively, were tested for their ability to stimulate cGMP synthesis in T84 cells. The control samples marked as C0 and C60 were produced by incubating SP-304 with heat inactivated SIF for 0 and 60 min, respectively. Samples from the incubations were removed and heated at 95° C. for 5 min to inactivate digestive enzymes and then used to stimulate cyclic GMP synthesis in T84 cells. The cGMP stimulation activity in the sample at 0 min of incubation time in SIF was taken as 100% biological activity. The activities of the other SP-304 incubation samples were calculated as the percentage of activity relative to that of the 0 min sample. […]
FIGS. 7G-1-7G-5: Incubation of SP-333 with SIF for 2, 6, 12 and 24 hrs. Effect of SIF digestion on the activity of SP-333 in T84 stimulation assay was determined (FIG. 7G-1) and samples were also analyzed by HPLC (FIGS. 7G2-5). […]
The stability of SP-304 was also evaluated after incubation with simulated intestinal fluid (SIF) by measuring its biological activity and by HPLC analyses (FIGS. 2A & 2B). […]

[2] = biological target: T1, intestinal GC-C receptor (Homo sapiens, UniProt P25092); test: Cyclic GMP stimulation assay in T84 cells; type: cell-based; settings: 30 min exposure (FIG. 5)
T1 construct: confluent monolayers of T-84 cells in 24-well plates; host or cells: T84 human colon carcinoma cells
T1 sequence (P25092 24-1073): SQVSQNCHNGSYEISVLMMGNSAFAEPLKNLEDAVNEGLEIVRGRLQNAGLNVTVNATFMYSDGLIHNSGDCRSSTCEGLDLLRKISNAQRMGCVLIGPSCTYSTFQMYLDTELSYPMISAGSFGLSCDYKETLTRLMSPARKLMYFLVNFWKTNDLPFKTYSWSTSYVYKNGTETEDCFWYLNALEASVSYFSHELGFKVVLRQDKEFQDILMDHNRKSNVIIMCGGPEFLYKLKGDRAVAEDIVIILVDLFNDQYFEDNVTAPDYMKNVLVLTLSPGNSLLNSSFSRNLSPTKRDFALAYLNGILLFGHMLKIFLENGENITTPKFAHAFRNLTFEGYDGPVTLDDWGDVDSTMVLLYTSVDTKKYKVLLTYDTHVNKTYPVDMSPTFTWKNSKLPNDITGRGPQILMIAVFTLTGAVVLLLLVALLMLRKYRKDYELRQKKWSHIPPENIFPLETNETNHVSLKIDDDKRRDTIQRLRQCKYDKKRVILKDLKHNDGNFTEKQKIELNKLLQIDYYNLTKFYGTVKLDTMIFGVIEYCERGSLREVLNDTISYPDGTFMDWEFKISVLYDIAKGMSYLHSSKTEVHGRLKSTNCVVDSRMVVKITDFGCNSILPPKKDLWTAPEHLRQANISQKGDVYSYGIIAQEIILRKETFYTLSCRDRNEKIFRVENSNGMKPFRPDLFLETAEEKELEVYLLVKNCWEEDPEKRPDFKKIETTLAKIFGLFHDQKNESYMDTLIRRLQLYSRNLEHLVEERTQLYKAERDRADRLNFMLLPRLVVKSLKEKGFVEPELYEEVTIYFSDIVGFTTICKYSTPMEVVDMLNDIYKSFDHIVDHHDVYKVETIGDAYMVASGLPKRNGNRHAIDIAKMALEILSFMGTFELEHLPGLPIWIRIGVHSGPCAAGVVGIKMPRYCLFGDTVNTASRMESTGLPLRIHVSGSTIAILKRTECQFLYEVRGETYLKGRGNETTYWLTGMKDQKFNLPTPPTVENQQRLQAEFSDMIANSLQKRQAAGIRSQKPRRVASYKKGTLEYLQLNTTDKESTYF
Description: FIG. 4: Biological activity of truncated peptides of 16-mer SP-304, as measured by stimulation of cGMP synthesis in T84 cells. SP-338 15-mer peptide is indentical to SP-304 except that it lacks Leu at the C-terminus. SP-327, SP-329 and SP-331 lack Leu at their C-termini relative to their corresponding parents, SP-326, SP-328 and SP-330, respectively. Data points shown are the average of duplicate measurements.
FIG. 5: Stimulation of cGMP synthesis in T84 cells by SP-304 and similar analogs. T84 cells were exposed to test peptides for 30 min and cell lysates were then used to determine intracellular cGMP levels. Data points shown are the average of triplicate measurements±SD.
FIG. 6: Stimulation of cGMP synthesis in T84 cells by SP-339 (linaclotide) and other linaclotide analogs. T84 cells were exposed to test peptides for 30 min and cell lysates were then used to determine intracellular cGMP levels. Data points shown are the average of triplicate measurements±SD.
FIG. 8: Stimulation of cGMP synthesis in T84 cells by the peggylated analogs of SP-333. T84 cells were exposed to the indicated peptides for 30 min and cell lysates were used to determine intracellular cGMP levels. Data points shown are the average of triplicate measurements±SD.
After the 30 min incubation, the medium was aspirated and the reaction was terminated by the addition of 3% perchloric acid. Following centrifugation and the addition of NaOH (0.1 N) to neutralize the pH, intracellular cGMP levels were determined in lysates using a cGMP ELISA kit (Cat. No. 581021; Cayman Chemical, Ann Arbor, Mich.). Peptide incubations were run in duplicate, and samples taken from each incubation were run as duplicates in the ELISA test.
The ability of the GCC agonist peptide to bind to and activate the intestinal GC-C receptor was tested using T84 human colon carcinoma cell line. Human T84 colon carcinoma cells were obtained from the American Type Culture Collection. Cells were grown in a 1:1 mixture of Ham's F-12 medium and Dulbecco's modified Eagle's medium (DMEM) supplemented with 10% fetal bovine serum, 100 U penicillin/ml, and 100 μg/ml streptomycin. The cells were fed fresh medium every third day and split at a confluence of approximately 80%.
Biological activity of the GCC agonist peptides was assayed as previously reported (Shailubhai, et al., Cancer Research 60, 5151-5157 (2000)). Briefly, the confluent monolayers of T-84 cells in 24-well plates were washed twice with 250 μl of DMEM containing 50 mM HEPES (pH 7.4), pre-incubated at 37° C. for 10 min with 250 μl of DMEM containing 50 mM HEPES (pH 7.4) and 1 mM isobutylmethylxanthine (IBMX), followed by incubation with GCC agonist peptides (0.1 nM to 10 µM) for 30 min. The medium was aspirated, and the reaction was terminated by the addition of 3% perchloric acid. Following centrifugation, and neutralization with 0.1 N NaOH, the supernatant was used directly for measurements of cGMP using an ELISA kit (Caymen Chemical, Ann Arbor, Mich.).
An additional strategy to render peptides more resistant towards digestion by digestive proteases is to peggylate them at the N- and C-terminus. The peptide SP-333 was peggylated with the aminoethyloxy-ethyloxy-acetic acid (Aeea) group at the C-terminus (SP-347) or at the N-terminus (SP-350) or at both termini (SP-343). Cyclic GMP synthesis in T84 cells was measured by the method as described above.

[3] = Stability in simulated intestinal fluid (SIF), HPLC analysis; type: in vitro ADME; settings: SIF
Description: FIG. 2B: HPLC chromatographic spectra of SP-304 samples after incubation with: (A) heat-inactivated SIF for 300 minutes, or (B) SIF for 120 minutes. The arrows show the elution position of SP-304.
FIGS. 7D-1-7D-2: HPLC chromatograms of SP-304 incubated for 0 min in SIF (FIG. 7D-1) and 60 min in SIF (FIG. 7D-2), respectively. The arrows indicate the elution positions of the parent SP-304 peptides. […] These new peptide peaks represent degradation products of SP-304.
FIGS. 7E-1-7-E2: HPLC chromatograms of SP-332 incubated for 0 min in SIF (FIG. 7E-1) and 120 min in SIF (FIG. 7E-2), respectively. The arrows indicate the elution positions of the parent SP-332 peptides.
FIGS. 7F-1-7F-2: HPLC chromatograms of SP-333 incubated for 0 min in SIF (FIG. 7F-1) and 120 min in SIF (FIG. 7F-2), respectively. The arrows indicate the elution positions of the parent SP-333 peptides.
FIGS. 7G-1-7G-5: Incubation of SP-333 with SIF for 2, 6, 12 and 24 hrs. Effect of SIF digestion on the activity of SP-333 in T84 stimulation assay was determined (FIG. 7G-1) and samples were also analyzed by HPLC (FIGS. 7G2-5). The elution positions of the parent peptide and its metabolites are indicated by arrows.
The physical stability of SP-304 peptide exposed to SIF was evaluated by HPLC using the method described for SGF digestion. […]

[4] = tested on: T84 cells; test: cGMP synthesis in T84 cells, GCC agonist alone or in combination with PDE inhibitors; type: cell-based, human; settings: 100 μM, 30 min
Description: FIG. 9: Stimulation of cGMP synthesis in T84 cells by SP-304 (0.1 μM) either alone or in combination with the phosphodiesterase (PDE) inhibitors Sulindac Sulfone (100 μM) or Zaprinast (100 μM). T84 cells were exposed to various treatments, as indicated, for 30 min and the cell lysates were used to determine the intracellular cGMP levels. Data points shown are the average of duplicate measurements.
FIG. 10: Stimulation of cGMP synthesis in T84 cells by SP-304 (0.1 or 1.0 μM) either alone or in combination with incremental concentrations of phosphodiesterase (PDE) inhibitors, as indicated. T84 cells were exposed to various treatments, as indicated, for 30 min and the cell lysates were used to determine the intracellular cGMP levels. Data points shown are the average of duplicate measurements. […]
SS and ZAP in combination with SP-304 or SP-333 were evaluated to see if these PDE inhibitors had any synergistic effects on intracellular accumulation of cGMP (FIG. 9-12). […]
For the results shown in FIG. 9, cyclic GMP synthesis in T84 cells was assessed essentially as described in Shailubhai et al., Cancer Research 60, 5151-5157 (2000). […] Following centrifugation and the addition of NaOH (0.1 N) to neutralize the pH, intracellular cGMP levels were determined in lysates using a cGMP ELISA kit (Cat. No. 581021; Cayman Chemical, Ann Arbor, Mich.). […]

Compound	biological activity remaining after incubation in SIF [1] [%]	ability to stimulate cGMP synthesis in T84 cells relative to SP-304 [2]	HPLC analysis of parent peptide after incubation with SIF ([3]; 120 min)	degradation in SIF ([3]; up to 24 hours (FIG. 7G))	intracellular accumulation of cGMP, PDE inhibitor alone [4]
dAsn^1-Asp^2-Glu^3-Cys^4-Glu^5-Leu^6-Cys^7-Val^8-Asn^9-Val^10-Ala^11-Cys^12-Thr^13-Gly^14-Cys^15-dLeu^16 ([dN]DECELCVNVACTGC[dL]; disulfide (positions not given here); also: two disulfides, pairing not given here) [SP-333]	~100	comparable ability	remained virtually intact	very little degradation	–
CC1=C(CC(=O)O)c2cc(F)ccc2/C1=C\c1ccc(S(C)(=O)=O)cc1 [Sulindac Sulfone]	–	–	–	–	did not enhance
